Reference: the nanobody polyreactivity screen of Harvey et al. (2022)

assay: yeast display, Sf9 membrane polyspecificity reagent, FACS + sequencing; frameworks hold sequencing errors
Outline: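 A synthetic nanobody library was expressed on Saccharomyces cerevisiae BJ5465 by galactose induction for 36–48 hours. The library was stained for 1 hour at 4 °C with 10% biotinylated, detergent-solubilized Sf9 membrane reagent and enriched with streptavidin microbeads before FACS. Low and high (top ~1%) gates were set on anti-HA fluorescence for expression and streptavidin fluorescence for reagent binding, and each polyreactivity label reflects the gate of origin.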

Sequence	polyreactivity (PSR sort gate)
QVQLVESGGGLVQAGGSLRLSCAASGRIFGTYAMGWYIQAPGKERELVAGITWRTASTYYADSVKGRFTISRDNAKNTVYLQMNSLKPEDTAVYYCNADAWVWYYYYSYDYWGQGTQVTVSS	low polyreactivity
QVQLVESGGGLVQAGGSLRLSCAASGRIFGTYAMGWYRQAPGKEREFVAAITSSGGNTYYADSVKGRFTISRDNAKNTVYLQMNSLKPEDTGVYYCNARPLYRHYITRFDYWGQGTQVTVSS	high polyreactivity
QVQLVESGGGLVQAGGSLRLSCAASGRIFGTYAMGWYRQAPGKERELVAAITQSGGSTYYADSVKGRFTISRDNAKNTVYLQMNSLKPEDTAVYYCKLVKTTSTLGKRRYDYWGQGTQVTVSS	high polyreactivity
QVQLVESGGGLVQAGGSLRLSCAASGRIFGTYAMGWYRQAPGKERELVAAITRDGSTNYADSVKGRFTISRDNAKNTVYLQMYSLKTEDSAVYYCAAGYLPDPDDYDSWGQGTQVNVSS	low polyreactivity
QVQLVESGGGLVQAGGSLRLSCAASGRIFGVNAMGGYRQAPGKERELVAAIFSGGSTYYADSVKGRFTISRDNAKNTVYLQMNSLKPEDTAVYYCAKLYTVAIVWSAYDYWGQGTQVTVSS	low polyreactivity
QVQLVESGGGLVQAGGSLRLSCAASGRIFGVNAMGWYRPAPGKERELVAHIRSSGASTYYADSVKGRFTISRDNAKNTVYLQMNSLKPEDTAVYYCARDYFVDGPGYDYWGQGTQVTVSS	low polyreactivity
QVQLVESGGGLVQAGGSLRLSCAASGRIFGVNAMGWYRQAPGKERELVAGITTSGGSTYYADSVKGRFTISRDNAKNTVYLQMNSLKPEDTAVYYFNGLTRRWYSLRSYDYWGQGTQVTVSW	high polyreactivity
QVQLVESGGGLVQAGGSLRLSCAASGRIFGVNTMGWYRQEPGKEREMVAVIRESDGSTYYADSVKGRFTISRDNAKNTVYLQMNSLKPEDTAVYYCAKDWYRSPSTYEWNSQYGYWGQGTQVTVSS	low polyreactivity
QVQLVESGGGLVQAGGSLRLSCAASGRIFGVYAMGWYRPAPGKERELVAAITRGASTYYADSVKGRFTISRDNAKNTVYLQMNSLKPEDTAVYYCAAVVSGRYWGYYSWGQGTQVTVSS	high polyreactivity
QVQLVESGGGLVQAGGSLRLSCAASGRIFGVYAMGWYRQAPGKERELGAALSEGGGSTNYADSVKGRFTISRDNAKNTVYLQMNSLKPEDTAVDYCAATSRTGVRRYYSWGQGTQVTVSS	low polyreactivity
QVQLVESGGGLVQAGGSLRLSCAASGRIFGVYAMGWYRQAPGKERELVAAIRGGGSTKYADSVKGRFTISRDNAKNTVYLQMNSLKPEDTAVYYCAARKRYYKHDYWGQGTQVTVSS	low polyreactivity
QVQLVESGGGLVQAGGSLRLSCAASGRIFGVYAMGWYRQAPGKERELVAAISEGGGSTNYADSVKGRFTISRDNAKNTVYLQMNSLKPEDTAVYYCAADRSYYGYGYWGQGTQVTVSS	low polyreactivity
QVQLVESGGGLVQAGGSLRLSCAASGRIFGVYAMGWYRQAPGKERELVAAITRGASTYYADSVKGRFTISRDNAKNTVYLQMNSLKPEDCAVYYCAVSQYRGIYRMDYWGQGTQVTVSS	high polyreactivity
QVQLVESGGGLVQAGGSLRLSCAASGRIFGVYAMGWYRQAPGKERELVAAITSSGGRTYYADSVKGRFTISRDNAKNTVYLQMNSLKPEDTAVYYCAALGWSRRGKFNYWGQGTQVTVSS	high polyreactivity
QVQLVESGGGLVQAGGSLRLSCAASGRIFGVYAMGWYRQAPGKERELVAAIYSGSTTYYADSVKGRFTISRDNAKNTVYVQMNSLKPEDTAVYYCAAVSRDDNYQDYYSWGQGTQVTGSS	low polyreactivity
QVQLVESGGGLVQAGGSLRLSCAASGRIFGVYAMGWYRQAPGKERELVADISWSGSGTYADSVKGRFTISRDNAKNTVYLQMMSLKPEDTAVYYCNVDPAQIHAGYVGYDYWGQGTQVTVSS	low polyreactivity

Sequence	polyreactivity (PSR sort gate)
QVQLVESGGGLVQAGGSLRLSCAASGRIFGVYAMGWYRQAPGKERELVASITGSGGRTYYADSVKGRFTISRDNAKNTVYLQMNSLKPEDTAVYYCAAKWGTRLAQQKSYGYWGQGTQVTVSS	high polyreactivity
QVQLVESGGGLVQAGGSLRLSCAASGRIFGVYAMGWYRQAPGKERELVATITSGGSTSYADSVKGRFTISRDNAKNTVYLQMNSPKPEDTAVYYCNAPYSFFWQQMNYWGQGTQVTVSS	low polyreactivity
QVQLVESGGGLVQAGGSLRLSCAASGRIFGVYVMGWYRQAPGKERELVAAISWSGSHTYYADSVKGRFTISRDNAKNTVYLQMNSLKPEDTAVYYCAAGASLWRLGLKMGYWGQGTQVTVSS	low polyreactivity
QVQLVESGGGLVQAGGSLRLSCAASGRIFGVYVMGWYRQAPGKERELVAAISWSGSHTYYADSVKGRFTISRDNAKNTVYLQMNSLKPEDTAVYYCNADSSPEYTGPGLDWYDYWGQGTQVTVSS	low polyreactivity
QVQLVESGGGLVQAGGSLRLSCAASGRIFGWYAMGWYRQAPGKERELVAAIDGGDDSTYYADSVKGRFTISRDNAKNTVYLQMNSLKPEDTAVYYCAVVGYNWGQGTQVTVSS	low polyreactivity
QVQLVESGGGLVQAGGSLRLSCAASGRIFGWYAMGWYRQSPGKERELVAAITGSGSRTYYADSVKGRFTISRDNAKNTVYLQMNSLKPEDTAVYYCAVPTRRRRIYDYWGQGTQVTVSS	high polyreactivity
QVQLVESGGGLVQAGGSLRLSCAASGRIFGYHARGWSRQAPGKERELVAAIDYTGGSTYYADSVKGRFTISRDNAKNTVYLQMNSLKPEETAVNYCAKDRTTPWEEDAYWGQGTQVTVSS	low polyreactivity
QVQLVESGGGLVQAGGSLRLSCAASGRIFGYNALGWYRQAPGKERELVAAINSDGSKNYADSVKGRFTISRDNAKNTVYFQMNSLNPEDTALYYCNKELYPVGDYEYWGEGTQVTVSS	low polyreactivity
QVQLVESGGGLVQAGGSLRLSCAASGRIFGYNAMGWSRQAPGKERELFAAITTSGGSTYYADSVKGRFTISRDNAKNTVYLQMNSLKPEDTAVYYCARDSLQVFYPYASDDYWGQGTQVTVSS	low polyreactivity
QVQLVESGGGLVQAGGSLRLSCAASGRIFGYNAMGWSRQAPGKERELGAAISWSGGSTFYADSVKGRFTISRDNAKNTVYLQMNSLKPEDTAVYYCAADSQDGYYYWGQGTQVTVSS	low polyreactivity
QVQLVESGGGLVQAGGSLRLSCAASGRIFGYNAMGWYRQAPGKERELVAVITYSGGSTYYADSVKGRFTISRDNAKNTVYLQMNSLKPEDTAVYYCNARPIDRYSGSGKQWPDYYYWGQGTQVTVSS	low polyreactivity
QVQLVESGGGLVQAGGSLRLSCAASGRIFGYYAMGCYRQAPGKERELVAAIRWGGGRTYADSVKGRFTISRDNAKNTVYLQMNSLKPEDTAVDYCAARFTRTRPLWRARYGYWGQGTQVTVSS	high polyreactivity
QVQLVESGGGLVQAGGSLRLSCAASGRIFGYYAMGWYIQAHGKERELVAAINSGSRTYYADSVKGRFTISRDNAKNTVYLQMNSLKPEDTAVYYCAARVRYPPYRSSDGQRGGYWGQGTQVTVSS	high polyreactivity
QVQLVESGGGLVQAGGSLRLSCAASGRIFGYYAMGWYRLAPGKERELVAAITSGGRTTYADSVKGRFTISRDNAKNTVYVQMNSLKPEDTAVYYCAKEYPRYSSPYDYWGQGTQVTVSS	low polyreactivity
QVQLVESGGGLVQAGGSLRLSCAASGRIFGYYAMGWYRQAPGKEMELVARITWSGGDTYYADSVKGRFTISRDNAKNTVYLQMNSLKPEDTAVYYCAADYLDSTYGYVYGWDDYWGQGTQVTVSS	low polyreactivity
